# Laboratory results reported in patent US20260139067A1 (BETH ISRAEL DEACONESS MEDICAL CENTER, published 2026).
# What was measured:
# [1] = target: T1, CDCP1 expressed on the surface of human cells (PC3, H1299, H2009 and others) (human, UniProt Q9H5V8 30-836); experiment: immunoprecipitation: antibody 24 (5 µg/ml) added to intact PC3 cells (80 min, 4 °C), Western blot
# T1 construct: Endogenous CDCP1 of human cell lines; also called CDCP1 antigen expressed on PC3 cells; CDCP1 expressing cells
# [2] = target: T1, CDCP1 expressed on the surface of human …; experiment: immunoprecipitation: antibody 76 (20 ng/ml) added to intact PC3 cells (80 min, 4 °C), Western blot
# [3] = target: T1, CDCP1 expressed on the surface of human …; experiment: flow cytometry on H1299 cells (NSCLC), anti-human IgG Fc R-PE detection
# Protocol: (§1) Binding was evaluated on three human cancer cell lines, PC3 (prostate cancer), H1299 (Non-small cell lung cancer), and H2009 (lung adenocarcinoma). To accomplish this, adherent cells were first dissociated with Cell Dissociation Buffer (Life Technologies #13150-016), pelleted by centrifugation, and resuspended by FACS buffer (PBS-CMF, 3% FBS, 0.1% weight/volume (w/v) sodium azide). […] Following a thirty-minute incubation on ice in dark, the cells were washed twice, combined with eFluor 660 Fixable Viability Dye (eBioscience #65-0864-18), and fixed (BD Cytofix, BD Biosciences #554655). Stained cells were acquired on a LSR Fortessa instrument using BD FACSDiva Software. Background subtracted gMFI of viable cells was determined using FlowJo software and plotted using Graphpad Prism software to generate EC₅₀ s (FIGS. 26A and 26B).
# [4] = target: T1, CDCP1 expressed on the surface of human …; experiment: flow cytometry on PC3 cells (prostate cancer), anti-human IgG Fc R-PE detection
# Protocol: as §1
# [5] = target: T2, recombinant human CDCP1 extracellular domain (CDCP1-ECD) (human, UniProt Q9H5V8 30-663); experiment: SPR (Biacore T200), antibody captured on anti-human IgG, CDCP1-ECD injected
# T2 construct: Expressed in HEK293 and chemically biotinylated for the phage selection; also called human CDCP1 ECD; human CDCP1-ECD
# Protocol: (§2) Specifically, the binding kinetics of anti-CDCP1 antibodies against recombinant human, cynomologus monkey and mouse CDCP1-ECD were determined using surface plasmon resonance (SPR) and a Biacore T200 instrument (GE Healthcare). An anti-human IgG antibody was amine coupled onto a CM5 carboxymethylated dextran sensor chip surface (GE Healthcare), using the manufacturer's recommendations, to densities of approximately 10,000-13,000 response units (RU). Each anti-CDCP1 antibody was diluted to 0.5 μg/mL in 10 mM HEPES pH 7.4, 0.15 M NaCl, 3 mM EDTA, 0.05% P-20 (HBS-EP+) and captured for about 20-23 seconds at a flow rate of 10 μL/min. […] The sensorchip surface was regenerated with three 30 second pulses of 3M MgCl₂ at a flow rate of 50 μL/minute. All injections used HBS-EP+ as both the running and sample buffer and were performed at 25° C. with a data collection rate of 1 Hz. Sensorgrams were double referenced by using both a control surface and buffer injections. Rate constants were determined by fitting the data to a 1:1 model with Biacore T200 evaluation software v3.0 and the equation KD=kd/kₐ.
# [6] = target: T3, recombinant cynomolgus monkey CDCP1 extracellular domain (cynomolgus monkey, UniProt A0A2K5VLA8 30-663); experiment: as above
# T3 construct: range 30-663; also called cyno CDCP1 ECD; cynomolgus monkey CDCP1-ECD
# T3 sequence (A0A2K5VLA8 entry or part of it): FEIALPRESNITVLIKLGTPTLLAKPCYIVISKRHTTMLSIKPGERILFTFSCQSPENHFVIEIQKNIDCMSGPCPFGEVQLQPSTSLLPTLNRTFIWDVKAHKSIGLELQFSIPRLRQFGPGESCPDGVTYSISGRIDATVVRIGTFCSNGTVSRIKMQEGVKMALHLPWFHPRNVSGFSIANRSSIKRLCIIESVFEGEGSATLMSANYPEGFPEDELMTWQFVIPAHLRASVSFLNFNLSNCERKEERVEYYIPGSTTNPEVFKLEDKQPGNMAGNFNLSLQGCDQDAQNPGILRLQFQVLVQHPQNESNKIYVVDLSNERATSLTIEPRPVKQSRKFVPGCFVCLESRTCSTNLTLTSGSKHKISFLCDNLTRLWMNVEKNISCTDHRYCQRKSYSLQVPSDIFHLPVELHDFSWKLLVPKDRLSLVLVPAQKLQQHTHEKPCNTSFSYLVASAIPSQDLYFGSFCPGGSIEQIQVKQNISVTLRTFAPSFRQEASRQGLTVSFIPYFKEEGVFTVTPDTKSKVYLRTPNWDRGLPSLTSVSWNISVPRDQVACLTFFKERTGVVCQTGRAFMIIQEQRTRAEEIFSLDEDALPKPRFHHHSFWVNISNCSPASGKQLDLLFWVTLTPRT
# Protocol: as §2
# [7] = target: T1, CDCP1 expressed on the surface of human …; experiment: flow cytometry on H2009 cells (lung adenocarcinoma), anti-human IgG Fc R-PE detection
# Protocol: as §1
# [8] = target: T2, recombinant human CDCP1 extracellular …; experiment: SPR (Biacore T200), antibody captured on anti-human IgG, CDCP1-ECD injected; experiment 2
# Protocol: as §2
# [9] = target: T3, recombinant cynomolgus monkey CDCP1 …; experiment: as above
# Protocol: as §2
# [10] = target: T1, CDCP1 expressed on the surface of human …; experiment: competition FACS on PC3 cells; competitor: biotinylated CP13E10 reporter at 1.5 µg/mL, streptavidin-PE detection
# Protocol: For this competition FACS assay procedure, PC3 cells were detached from flasks using cell dissociation buffer (Gibco, catalog number 13151-014), washed once with ice-cold FACS buffer (PBS-CMF pH 7.2+3% FBS+0.1% sodium azide) and 2.5×10⁵ cells in 50 μl buffer were added to each well in 96-well V-bottom plates (Corning catalog number 3894). […] Next, the cells were washed twice with FACS buffer. Streptavidin-PE (Invitrogen/eBioscience catalog number 12-4317-87) diluted 1:200 was added and incubated for 30 minutes at room temperature. The cells were washed twice with FACS buffer and were fixed on ice for 15 minutes by adding 100 μl of BD Cytofix (BD Biosciences catalog number 554655) to each well. The cells were washed twice with FACS buffer.
# [11] = target: T1, CDCP1 expressed on the surface of human …; experiment: competition FACS on PC3 cells; competitor (reporter) biotinylated CP13E10
# [12] = target: T2, recombinant human CDCP1 extracellular …; experiment: SPR, Biacore T200
# Protocol: as §2
# [13] = target: T3, recombinant cynomolgus monkey CDCP1 …; experiment: SPR, Biacore T200
# Protocol: as §2
# [14] = target: T2, recombinant human CDCP1 extracellular …; experiment: competition ELISA of Example 7 on CDCP1-ECD (biotinylated CP13E10-54HC-89LC reporter as described there; the reporter is not named on the sheet)
# Protocol: The CDCP1-ECD protein was diluted to 1 μg/ml in PBS-CMF pH 7.2, 100 μl was added to each well of the plate, and the plate was incubated overnight at 4° C. The contents of the plate were discarded and then the plate was blocked with PBS-CMF pH7.2+0.02% casein for 3 hours at room temperature. […] The wells were washed four times with PBS-CMF pH7.2+0.03% tween-20. Streptavidin-HRP (catalog #7100-05, Southern Biotech, (Birmingham, Alabama) diluted 1:10,000 was added and incubated for 30 minutes at room temperature. The wells were washed four times with PBS-CMF pH 7.2+0.03% tween-20 and then TMB (BioFx) was added. The reaction developed for 5 to 10 minutes and was then quenched with 0.18 N H₂SO₄. The absorbance at 450 nm was determined and the results are shown in FIG. 7.
binder,measurement,setting,value
"antibody 24 (antibody, human IgG1, kappa, V domains shown, Human IgG1, kappa) VH: QVQLVESGGGVVQPGRSLRLSCAASGFTFSSYGMHWVRQAPGKGLEWVAVISYDGSNKYYADSVKGRFTISRDNSKNTLYLQMNSLRAEDTAVYYCARGVGLPDIWGQGTMVTVSS VL: EIVMTQSPDTLSLSPGERATLSCRASQKIYYSYLAWYQQKPGQAPRLLISGASTRASDISDRFSGGGSGTDFTLTINSLESEDAAVYYCQQYDSLPVTFGRGTKLEIKR",binding result,[1],binds
"antibody 76 (antibody, human IgG1, lambda, V domains shown, Human IgG1, lambda) VH: QVQLVQSGAEVKKPGSSVKVSCKASGGTFSSYAISWVRQAPGQGLEWMGGIIPIFGTANYAQKFQGRVTITADKSTSTAYMELSSLRSEDTAVYYCARDPTYFDWTRRGYYYMDVWGKGTTVTVSS VL: SYELTQPPSVSVSPGQTARITCSGDALPKKYAFWYQQKSGQAPVLVIYEDSKRPSGIPEKFSGSSSGTMATLTISGAQVEDEADYYCYSTDSSDNPRGVFGGGTKLTVLG",binding result,[2],binds
"CP13E10-54HC-89LC (antibody, human IgG1, kappa, V domains shown, Human IgG1, kappa; Alexa Fluor 647 conjugated in the internalization assay; also called CP13E10-54VH-89VL) VH: EVQLVQSGAEVKKPGASVKVSCKASGYTFTSYYMHWVRQAPGQGLEWMGIINPSGGSTSYAQKFQGRVTMTRDTSTSTVYMELSSLRSEDTAVYYCARDGELRHFDHLLDYHYYMDVWGQGTTVTVSS VL: EIVLTQSPATLSLSPGERATLSCRASQSVGSYLAWYQQRPGQAPRLLIYDASNRATGIPARFSGSGSGTDFTLTISSLEPEDFAVYYCQQRAQEFTFGQGTKVEIKR",EC50,[3],0.73 nM
same,EC50,[4],1.69 nM
same,Kd,[5],52.9 nM
same,Kd,[6],79.9 nM
same,EC50,[7],0.77 nM
same,Kd,[8],42 nM
same,Kd,[9],63.4 nM
"CP13E10-54 variant (antibody, human IgG1, kappa, V domains shown) VH: EVQLVQSGAEVKKPGASVKVSCKASGYTFTSYYMHWVRQAPGQGLEWMGIINPSGGSTSYAQKFQGRVTMTRDTSTSTVYMELSSLRSEDTAVYYCARDGELRHFDHLLDYHYYMDVWGQGTTVTVSS VL: EIVLTQSPATLSLSPGERATLSCRASQSVGSYLAWYQQRPGQAPRLLIYDASNRATGIPARFSGSGSGTDFTLTISSLEPEDFAVYYCQQRANVFTFGQGTKVEIKR",IC50 (read off the curve),[10],~9 nM
"CP13E10-34 variant (antibody, V domains shown) VH: EVQLVQSGAEVKKPGASVKVSCKASGYTFTSYYMHWVRQAPGQGLEWMGIINPSGGSTSYAQKFQGRVTMTRDTSTSTVYMELSSLRSEDTAVYYCARDGVLRHFDHLLDYHYYMDVWGKGTTVTVSS VL: EIVLTQSPATLSLSPGERATLSCRASQSVGSYLAWYQQRPGQAPRLLIYDASNRATGIPARFSGSGSGTDFTLTISSLEPEDFAVYYCQQRANVFTFGQGTKVEIKR",fold lower binding relative to parental CP13E10,[11],> 7 fold
same,Kd,[5],607 nM
"CP13E10-291 (antibody, human IgG1, kappa, V domains shown, Human IgG1, kappa) VH: EVQLVQSGAEVKKPGASVKVSCKASGYTFTSYYMHWVRQAPGQGLEWMGIINPSGGSTSYAQKFQGRVTMTRDTSTSTVYMELSSLRSEDTAVYYCARDGELRHFDQVYNYHYYMDVWGQGTTVTVSS VL: EIVLTQSPATLSLSPGERATLSCRASQSVGSYLAWYQQRPGQAPRLLIYDASNRATGIPARFSGSGSGTDFTLTISSLEPEDFAVYYCQQRANVFTFGQGTKVEIKR",fold increase in affinity relative to CP13E10-34,[12],> 200 fold
same,fold increase in binding relative to CP13E10-WT,[13],> 70 fold
same,Kd,[5],2.9 nM
same,Kd,[6],3.12 nM
"CP13E10-54HCv13-89LCv1 (antibody, human IgG1, kappa, V domains shown) VH: EVQLVQSGAEVKKPGASVKVSCKASGYTFTSYYMHWVRQAPGQGLEWMGIINPSGGSTSYAQKFQGRVTMTRDTSTSTVYMELSSLRSEDTAVYYCARDAELRHFDHLLDYHYYMDVWGQGTTVTVSS VL: EIVMTQSPATLSLSPGERATLSCRASQSVGSYLAWYQQKPGQAPRLLIYDASNRATGIPARFSGSGSGTDFTLTISSLQPEDFAVYYCQQRAQEFTFGQGTKVEIKR",IC50 (read off the curve),[14],~5 nM
"CP13E10 (antibody, human IgG1, kappa, V domains shown, Human IgG1, kappa; Heavy chain can be prepared with or without the C-terminal lysine; also called CP13E10-WT; parental CP13E10 antibody) VH: EVQLVQSGAEVKKPGASVKVSCKASGYTFTSYYMHWVRQAPGQGLEWMGIINPSGGSTSYAQKFQGRVTMTRDTSTSTVYMELSSLRSEDTAVYYCARDGVLRYFDWLLDYYYYMDVWGKGTTVTVSS VL: EIVLTQSPATLSLSPGERATLSCRASQSVGSYLAWYQQRPGQAPRLLIYDASNRATGIPARFSGSGSGTDFTLTISSLEPEDFAVYYCQQRANVFTFGQGTKVEIKR",Kd,[5],219 nM
same,Kd,[6],232 nM
same,IC50 (read off the curve),[10],~7 nM
